Measurements reported in publication doi:10.1101/2025.11.05.686565 (bioRxiv, 2025).

Target: the molecule itself
Assay: cryo-EM structure

B1: full-length, strep-tagged human Wdr37 (natural protein, UniProt Q9Y2I8 1-494, looked up)
chain: MPTESASCSTARQTKQKRKSHSLSIRRTNSSEQERTGLPRDMLEGQDSKLPSSVRSTLLELFGQIEREFENLYIENLELRREIDTLNERLAAEGQAIDGAELSKGQLKTKASHSTSQLSQKLKTTYKASTSKIVSSFKTTTSRAACQLVKEYIGHRDGIWDVSVAKTQPVVLGTASADHTALLWSIETGKCLVKYAGHVGSVNSIKFHPSEQLALTASGDQTAHIWRYAVQLPTPQPVADTSISGEDEVECSDKDEPDLDGDVSSDCPTIRVPLTSLKSHQGVVIASDWLVGGKQAVTASWDRTANLYDVETSELVHSLTGHDQELTHCCTHPTQRLVVTSSRDTTFRLWDFRDPSIHSVNVFQGHTDTVTSAVFTVGDNVVSGSDDRTVKVWDLKNMRSPIATIRTDSAINRINVCVGQKIIALPHDNRQVRLFDMSGVRLARLPRSSRQGHRRMVCCSAWSEDHPVCNLFTCGFDRQAIGWNINIPALLQEK
stoichiometry N: 2
